Source: IntAct's records for PubMed 23937259

biological target: pp1a_human PPP1CA (UniProt P62136)
Sequence (P62136 whole entry): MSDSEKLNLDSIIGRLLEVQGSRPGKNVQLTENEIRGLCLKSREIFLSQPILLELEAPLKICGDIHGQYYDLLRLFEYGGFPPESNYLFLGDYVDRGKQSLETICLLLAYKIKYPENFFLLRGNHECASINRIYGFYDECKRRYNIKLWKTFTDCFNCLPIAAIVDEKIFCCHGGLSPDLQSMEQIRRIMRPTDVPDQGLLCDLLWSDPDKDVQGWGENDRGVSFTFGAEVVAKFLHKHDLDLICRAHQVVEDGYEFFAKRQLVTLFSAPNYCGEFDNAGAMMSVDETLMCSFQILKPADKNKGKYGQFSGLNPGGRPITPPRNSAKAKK

Row | Substance | effect of a mutation on the interaction
1 | Leucine-rich repeat serine/threonine-protein kinase 2 (Homo sapiens), Q5S007 N1437H | increasing interaction strength
2 | Leucine-rich repeat serine/threonine-protein kinase 2 (Homo sapiens), Q5S007 R1441G | increasing interaction strength
3 | Leucine-rich repeat serine/threonine-protein kinase 2 (Homo sapiens), Q5S007 S910A;S935A;S955A;S973A | increasing interaction strength
4 | Leucine-rich repeat serine/threonine-protein kinase 2 (Homo sapiens), Q5S007 Y1699C | increasing interaction strength
